According to patent US20050058639A1 (AstraZeneca / MedImmune, published 2005):

T1: recombinant human MCP-2 (human, UniProt P80075 24-99)
T1 construct: also called rhMCP-2
T1 sequence (looked up): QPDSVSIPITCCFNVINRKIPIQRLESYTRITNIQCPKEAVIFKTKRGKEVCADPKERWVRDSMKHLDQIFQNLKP

T2: human RANTES (human, UniProt P13501 24-91)
T2 construct: also called hRANTES
T2 sequence (looked up): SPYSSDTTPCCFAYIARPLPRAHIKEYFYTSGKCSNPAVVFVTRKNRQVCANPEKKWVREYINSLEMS

T3: human GRO/MGSA (human, UniProt P09341 35-107)
T3 construct: also called hGRO/MGSA; GRO-alpha
T3 sequence (looked up): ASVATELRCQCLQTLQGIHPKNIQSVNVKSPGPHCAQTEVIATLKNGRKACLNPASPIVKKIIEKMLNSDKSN

T4: human MIP-1-alpha (human, UniProt P10147 24-92, limits assumed)
T4 construct: also called hMIP-1-alpha
T4 sequence (looked up): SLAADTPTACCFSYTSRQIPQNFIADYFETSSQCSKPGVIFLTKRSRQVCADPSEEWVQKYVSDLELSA

B1: anti-MCP-1 mAb 5.1 (antibody, V domains shown)
VH: EQSGGGVVQPGRSLRLSCAASGFTFSSYGMHWVRQAPGKGLEWVAVIWYDGNNKYYADSVKGRFTISRDTSKNTLYLQMNSLRAEDTAVYYCARDSSSYYYYGMDVWGQGTTVTVSS
VL: NFMLTQPHSVSESPGKTVTISCTRSSGSIASNYVQWFQQRPGSSPTTVIYEDDQRPSGVPDRFCGSIDSSSNSASLTISGLRTEDEADYYCQSYDSSNHVVFGGGTKLTVLG
B2: anti-MCP-1 mAb 1.7.1 (antibody, human IgG2, kappa, V domains shown)
VH: QVQLVQSGAEVKKPGASVKVSCKVSGYTLTELSMHWVRQAPGKGLEWMGGFDPEDGETIYAQKFQGRVSMTEDTSTDTAYMELSSLRSEDTAVYFCATNEFWSGYFDYWGQGTLVTVSS
VL: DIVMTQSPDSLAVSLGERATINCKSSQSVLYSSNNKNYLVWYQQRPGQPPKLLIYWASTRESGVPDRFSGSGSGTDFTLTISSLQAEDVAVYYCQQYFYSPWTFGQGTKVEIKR
notes: also called 1.7.2
B3: anti-MCP-1 mAb 4.7.1 (antibody, V domains shown)
VH: QVQLVQSGAEVKKPGASVKVSCKVSGYTLTELSMHWVRQAPGKGLEWMGGFDPEDGETIYAQKFQGRVTMTEDTSTDTAYMELSSLRSEDTAVYYCATDDFWSGYFDYWGQGTLVTVSS
VL: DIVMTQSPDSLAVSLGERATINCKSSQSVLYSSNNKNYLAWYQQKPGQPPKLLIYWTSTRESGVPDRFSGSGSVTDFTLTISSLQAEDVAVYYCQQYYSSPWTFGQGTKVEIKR
B4: anti-MCP-1 mAb 4.6.1 (antibody, V domains shown)
VH: QVQLVQSGAEVKKPGASVKVSCKVSGYTLTELSMHWVRQAPGKGLEWMGGFDPEDGETIYAQKFQGRVTMTEDTSTDTAYMELSSLRSEDTAVYYCATDDFWSGYFDYWGQGTLVTVSS
VL: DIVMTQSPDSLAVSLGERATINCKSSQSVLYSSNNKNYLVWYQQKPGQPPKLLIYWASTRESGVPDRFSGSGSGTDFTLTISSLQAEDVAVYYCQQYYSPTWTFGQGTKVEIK
B5: anti-MCP-1 mAb 2.3.1 (antibody, V domains shown)
VH: QVQLVQSGAEVKKPGASVKVSCKVSGYTLTELSMHWVRQAPGKGLEWMGGFDPEDDETIYAQKFQGRVTMTEDTSTHTAYMELSSLRSEDTAVYYCATHDFWSAYFYYWGQGTLVTVSS
VL: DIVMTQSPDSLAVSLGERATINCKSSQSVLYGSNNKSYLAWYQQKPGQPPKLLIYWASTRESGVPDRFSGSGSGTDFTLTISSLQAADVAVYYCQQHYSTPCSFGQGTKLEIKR
B6: anti-MCP-1 mAb 4.8.1 (antibody, V domains shown)
VH: QVQLVQSGAEVKKPGASVKVSCKVSGYTLTELSMHWVRQAPGKGLEWMGGFDPEDGETIYAQKFQGRVTMTEDTSTDTAYMELSSLRTEDTAVYYCTTDDFWSGYFDYWGQGTLVTVSS
VL: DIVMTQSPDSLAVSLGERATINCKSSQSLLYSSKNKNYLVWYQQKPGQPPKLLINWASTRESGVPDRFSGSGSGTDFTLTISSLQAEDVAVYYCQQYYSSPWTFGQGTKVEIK
B7: anti-MCP-1 mAb 1.4.1 (antibody, V domains shown)
VH: QSGPGLVKPSQTLSLTCAISGDSVSSNSAAWNWIRQSPSRGLEWLGRTYYRSKWYSDHAVSVRSRITIYPDTSKNQFSLQLNSVTPEDTAVYYCARDRISGTYVGMDVWGQGTTVTVSS
VL: DIGMTQTPLSLSVTPGQPASISCKSSQSLLYSDGKTYLYWYLQKPGQPPQHLIYEVSNRFSGVPDRFSGSGSGTDFTLKISRVEADDVGVYYCMQTIHLPLTFGGGTKVEIQR

What was measured:
rat MCP-1 = rat MCP-1 (rat, UniProt P14844 24-148); assay: ELISA, coated antigen
Procedure: (§1) Determining cross-reactivity of anti-MCP-1 antibodies with other chemokines. ELISA plates (Fisher Cat. No. 12-565-136) were coated with 50 μl/well of MCP-1, MCP-2, MCP-3, MCP-4, RANTES, GRO-alpha, MIP-1 alpha, eotaxin, rat MCP-1 and mouse JE (2 μg/ml) in coating buffer (0.1 M carbonate buffer, pH 9.6, NaHCO₃ 8.4 g/L, then incubated at 4° C. overnight. After incubation, the plates were washed with washing buffer (0.05% Tween 20 in PBS) three times. 200 μL/well blocking buffer (0.5% BSA, 0.1% Tween 20, 0.01% Thimerosal in 1×PBS) were added and the plates incubated at room temperature for 1 hour. After incubation, the plates were washed with washing buffer three times. 50 μL/well of hybridoma supernatants, and positive and negative controls (positive control was anti-MCP-1 antibody purchased from R&D Sciences, and negative control was an antibody to Keyhole Limpet Hemocyanin produced at Abgenix) were added and the plates incubated at room temperature for 2 hours. After incubation, the plates were washed three times with washing buffer. […] After incubation, the plates were washed three times with washing buffer and 100 μL/well of TMB (BioFX Lab. Cat. #TMSK-0 100-01) was added and the plates allowed to develop for about 10 minutes.

[1] = biological target: T5, human monocyte chemo-attractant protein-1 (MCP-1) (human, UniProt P13500 24-99); assay: ELISA, coated antigen
T5 construct: 76-residue recombinant protein from E. coli, bought (PeproTech); also called hMCP-1(MCAF); human MCP-1
Procedure: as §1

recombinant human MCP-2 = biological target: T1, recombinant human MCP-2; assay: ELISA, coated antigen
Procedure: as §1

human eotaxin = biological target: T6, human eotaxin (human, UniProt P51671 24-97); assay: ELISA, coated antigen
T6 construct: also called hEotaxin
Procedure: as §1

recombinant human MCP-4 = biological target: T7, recombinant human MCP-4 (human, UniProt Q99616 24-98, limits assumed); assay: ELISA, coated antigen
T7 construct: also called rhMCP-4
Procedure: as §1

human RANTES = biological target: T2, human RANTES; assay: ELISA, coated antigen
Procedure: as §1

[2] = biological target: T8, recombinant mouse JE/MCP-1 (mouse, UniProt P10148 24-148); assay: ELISA, coated antigen
T8 construct: also called rmJE/MCP-1
Procedure: as §1

human GRO/MGSA = biological target: T3, human GRO/MGSA; assay: ELISA, coated antigen
Procedure: as §1

human MIP-1-alpha = biological target: T4, human MIP-1-alpha; assay: ELISA, coated antigen
Procedure: as §1

recombinant human MCP-3 = biological target: T9, recombinant human MCP-3 (human, UniProt P80098 24-99); assay: ELISA, coated antigen
T9 construct: also called rhMCP-3
Procedure: as §1

[3] = biological target: T5, human monocyte chemo-attractant …; assay: ELISA, hybridoma supernatant on coated MCP-1
Procedure: (§2) Selection of candidate antibodies for ELISA. After 14 days of culture, hybridoma supernatants were screened for MCP-1-specific monoclonal antibodies. The ELISA plates (Fisher, Cat. No. 12-565-136) were coated with 50 μl/well of MCP-1 (2 μg/mL) in Coating Buffer (0.1 M Carbonate Buffer, pH 9.6, NaHCO₃8.4 g/L), then incubated at 4° C. overnight. After incubation, the plates were washed with Washing Buffer (0.05% Tween 20 in PBS) three times. 200 μl/well Blocking Buffer (0.5% BSA, 0.1% Tween 20, 0.01% Thimerosal in 1× PBS) were added and the plates incubated at room temperature for 1 hour. After incubation, the plates were washed with Washing Buffer three times. 50 μL/well of hybridoma supernatants, and positive and negative controls were added and the plates incubated at room temperature for 2 hours.
(§3) The positive control used throughout was XMG2 MCP-1 Group 1, footpad N160-7 and the negative control was XMG2 KLH Group 1, footpad L627-6. After incubation, the plates were washed three times with Washing Buffer. […] In the secondary screen, three sets of samples (positives in first screening) were screened, one set for hIgG detection, one set for hKappa detection, and one set for hlambda detection. After incubation, the plates were washed three times with Washing Buffer. 100 μL/well of TMB (BioFX Lab. Cat. #TMSK-0100-01) were added and the plates allowed to develop for about 10 minutes (until negative control wells barely started to show color), then 50 μL/well stop solution (TMB Stop Solution (BioFX Lab. Cat. #STPR-0100-01) were added and the plates read on an ELISA plate reader at wavelength 450 nm. The OD readings from the positive wells are presented in Table 9.

[4] = biological target: T5, human monocyte chemo-attractant …; assay: cell-based or functional assay
[5] = biological target: T5, human monocyte chemo-attractant …; assay: Biacore, mAb immobilized, MCP-1 injected; Biacore, 25 C, native MCP-1 injected over immobilized mAb
Procedure: Determination of anti-MCP-1 antibody affinity using Biacore analysis. The antibody/MCP-1 interaction analysis was performed at 25° C. using two CM5 chips docked in Biacore 3000 optical biosensors. Individual flow cells on each chip were activated with a 7-minute injection of NHS/EDC, carbohydrazide was coupled through the NHS ester using a 7-minute injection, and the residual activated groups were blocked with a 7-minute injection of ethanolamine. The monosaccharide residues of each antibody were oxidized using 1 mM sodium metaperiodate in 100 mM sodium acetate, pH 5.5 at 4° C. for 30 minutes. The oxidized antibody was desalted into 100 mM sodium acetate, pH 5.0, to couple the antibody to the carbohydrazide-modified surface. The mAb surfaces were stabilized by reducing the hydrazone bond with 0.1 M sodium cyanoborohydride. The antigen/antibody interaction was tested by injecting 0, 0.049, 0.15, 0.4, 1.3, 4 and 12 nM of MCP-1 (Peprotech, N.J.) in running buffer (10 mM HEPES, 150 mM NaCl, 0.005% surfactant, 200 μg/ml BSA, pH 7.4). The surfaces were regenerated with a 12-second pulse of 15 mM H₃PO₄. The antigen/antibody interaction was tested by injecting duplicate antigen samples diluted in running buffer (10 mM HEPES, […], 0.005% surfactant, 200 μg/mL BSA, pH 7.4), in a 300-fold concentration range. The surfaces were regenerated with a 12-second pulse of 15 mM H₃PO₄. To determine the kinetics of each interaction, the data sets were fit globally to a 1:1 interaction model that included a parameter for mass transport.

[6] = biological target: T5, human monocyte chemo-attractant …; assay: ELISA, hybridoma supernatant on coated MCP-1; ELISA, hybridoma supernatant on plate-coated non-reduced MCP-1 (2 ug/mL)
Procedure: as §2, §3

[7] = biological target: T5, human monocyte chemo-attractant …; assay: ELISA, coated antigen; ELISA, purified clone 1:50 on coated hMCP-1 (2 ug/mL), cross-reactivity panel
Procedure: as §1

T9 sequence (P80098 24-99 limits assumed): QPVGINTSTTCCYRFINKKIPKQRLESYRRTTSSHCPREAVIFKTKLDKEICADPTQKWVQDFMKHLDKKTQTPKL
T8 sequence (P10148 24-148 limits assumed): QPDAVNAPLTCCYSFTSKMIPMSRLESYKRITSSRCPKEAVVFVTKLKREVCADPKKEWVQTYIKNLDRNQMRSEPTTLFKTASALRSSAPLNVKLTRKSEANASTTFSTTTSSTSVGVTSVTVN
T5 sequence (P13500 24-99): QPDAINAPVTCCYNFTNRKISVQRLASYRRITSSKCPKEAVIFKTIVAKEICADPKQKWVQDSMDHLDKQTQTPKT
T6 sequence (P51671 24-97 limits assumed): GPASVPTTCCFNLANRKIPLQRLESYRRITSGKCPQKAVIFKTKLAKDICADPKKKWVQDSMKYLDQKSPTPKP
Chain of rat MCP-1 (P14844 24-148 limits assumed): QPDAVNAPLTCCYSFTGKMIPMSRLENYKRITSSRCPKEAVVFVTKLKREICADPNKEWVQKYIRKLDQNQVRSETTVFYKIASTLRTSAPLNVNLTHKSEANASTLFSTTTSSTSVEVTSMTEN
T7 sequence (Q99616 24-98 limits assumed): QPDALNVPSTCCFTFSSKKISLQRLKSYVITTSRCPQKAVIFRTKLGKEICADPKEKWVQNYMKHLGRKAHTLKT

Binder	ELISA OD (rat MCP-1) [OD450]	ELISA OD [1] [OD450]	ELISA OD (recombinant human MCP-2) [OD450]	ELISA OD (human eotaxin) [OD450]	ELISA OD (recombinant human MCP-4) [OD450]	ELISA OD (human RANTES) [OD450]	ELISA OD [2] [OD450]	ELISA OD (human GRO/MGSA) [OD450]	ELISA OD (human MIP-1-alpha) [OD450]	ELISA OD (recombinant human MCP-3) [OD450]	ELISA OD-MCP-1 [3] [OD450]	IC50 Ca++ Flux [4] [µg/mL]	IC50 Chemotaxis [4] [µg/mL]	Kd [5] [nM]	ELISA OD-MCP-1 [6] [OD450]	ELISA OD [7] [OD450]
B1	0.054	0.521	0.051	0.042	0.043	0.043	0.044	0.044	0.043	0.05	4	3.5	1.3			
B2	0.042		0.044	0.04	0.041	0.039	0.041	0.041	0.04	0.053		0.11	0.35	0.0049	3.52	1.17
B3	0.062	0.744	0.042	0.042	0.044	0.046	0.042	0.046	0.046	0.046	3.84	0.39	0.45			
B4	0.05	0.686	0.047	0.049	0.047	0.053	0.049	0.046	0.055	0.05	3.51	0.31	0.4			
B5	0.058		0.052	0.045	0.064	0.055	0.054	0.062	0.067	0.059		0.14	0.58	0.096	3.88	
B6	0.091	1.14	0.041	0.043	0.039	0.044	0.042	0.042	0.041	0.043	4	0.22	0.29			
B7	0.05	0.738	0.046	0.043	0.045	0.046	0.042	0.044	0.041	0.049	4	0.11	0.51			
